A protein production outcome set (Wang et al. 2014)

Test: label from the status in PepcDB records
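Also: failed if final PepcDB status was selected cloned or expressed and not failed if soluble or beyond.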

Sequence | protein production
MPPRRRPHAGLTLPRILILNLLKALATISSLTMLSRITGLVREILIARAFGASDMTDAFNVAFRIPNLLRRIFAEGAFSQAFVPILNEYHGKRGHDETMSLVDAVATVMTWVLAAVSLLGVIGAPIVMTVVATGFRGDSETYNAAVFMTRVMFPYIGLISMVALASGILNTWRNFAVPAFTPVLLNLCLIVAALFVGPHMSQPIYAQAWGVLVGGVLQLVIQVPAMRKLGVMPRVSLNLRAAWANPGVRRVITQMLPALLAVSVAQISLIINTNIASRLGAGAVSYITYADRLMEFPTALLGVALGTILLPSLSRASAEDNREEYSGLLDWGLRLTFLLALPCAAGLMLFGTPITSVLFHYGRFDAHAVEMTQQALTTYGVGLLALILIKILTPGFYARQDIRTPVKIAILVLIITQASNYVFVPMLQHAGLPLSISFGATVNALLLFYGLRRRGYYHPAPGWGLFLLRLVAAMLILSGMLLWFARNFDWIALGATPGLRIALMGACLVLAATVYFGTLWLMGLRYSSFRRRAG | failed
MRNPFERMPTVLTADELIDKAFRRAEKAASSFKPRGNKVKKARLREELRVRTVSNVVRDNLRKVLERTPGLSTLPKFYQELVDVLVDRDTFHKAMAGIDWAIRIIRELEERYVERIRYSNDPNEIAELRRQFYGRVASVLRDIDDRLRYLNKAREVLKDLPVVDLEIPTVVIAGHPNVGKSTLLKALTTAKPEIASYPFTTRGINVGQFEDGYFRYQIIDTPGLLDRPISERNEIEKQAILALRYLGNLIIYIFDPSEHCGFPLEEQIHLFEEVHGEFKDLPFLVVINKIDVADEENIKRLEKFVKEKGLNPIKISALKGTGIDLVKEEIIKTLRPLAEKVAREKIERELRRYRSYL | not failed
YTSADNTWEPEENCDCPNLIQKFEESRAKSKKRGEKKPKCEEIQKLRGYERGLELAEIVGATDVTGDIKYLVRWQFCDEFDLVPSAQIVEKDPQMLIDYFQK | failed
METRAAENTAIFMCKCCNLFSPNQSELLSHVSEKHMEEGVNVDEIIIPLRPLSTPEPPNSSKTRDEFLVMKRKRGRPKGSTKKSSTEEELAENIVSPTEDSPLAPEEGNSLPPSSLECSKCCRKFSNTRQLRKHICIIVLNLGEEEGEAGNESDLELEKKCKEDDREKASKRPRSQKTEKVQKISGKEARQLSGAKKPIISVVLTAHEAIPGATKIVPVEAGPPETGATNSETTSADLVPRRGYQEYAIQQTPYEQPMKSSRLGPTQLKIFTCEYCNKVFKFKHSLQAHLRIHTNEKPYKCPQCSYASAIKANLNVHLRKHTGEKFACDYCSFTCLSKGHLKVHIERVHKKIKQHCRFCKKKYSDVKNLIKHIRDAHDPQDKKVKEALDELCLMTREGKRQLLYDCHICERKFKNELDRDRHMLVHGDKWPFACELCGHGATKYQALELHVRKHPFVYVCAVCRKKFVSSIRLRTHIKEVHGAAQEALVFTSSINQSFCLLEPGGDIQQEALGDQLQLVEEEFALQGVNALKEEACPGDTQLEEGRKEPEAPGEMPAPAVHLASPQAESTALPPCELETTVVSSSDLHSQEVVSDDFLLKNDTSSAEAHAAPEKPPDMQHRSSVQTQGEVITLLLSKAQSAGSDQESHGAQSPLGEGQNMAVLSAGDPDPSRCLRSNPAEASDLLPPVAGGGDTITHQPDSCKAAPEHRSGITAFMKVLNSLQKKQMNTSLCERIRKVYGDLECEYCGKLFWYQVHFDMHVRTHTREHLYYCSQCHYSSITKNCLKRHVIQKHSNILLKCPTDGCDYSTPDKYKLQAHLKVHTALDKRSYSCPVCEKSFSEDRLIKSHIKTNHPEVSMSTISEVLGRRVQLKGLIGKRAMKCPYCDFYFMKNGSDLQRHIWAHEGVKPFKCSLCEYATRSKSNLKAHMNRHSTEKTHLCDMCGKKFKSKGTLKSHKLLHTADGKQFKCTVCDYTAAQKPQLLRHMEQHVSFKPFRCAHCHYSCNISGSLKRHYNRKHPNEEYANVGTGELAAEVLIQQGGLKCPVCSFVYGTKWEFNRHLKNKHGLKVVEIDGDPKWETATEAPEEPSTQYLHITEAEEDVQGTQAAVAALQDLRYTSESGDRLDPTAVNILQQIIELGAETHDATALASVVAMAPGTVTVVKQVTEEEPSSNHTVMIQETVQQASVELAEQHHLVVSSDDVEGIETVTVYTQGGEASEFIVYVQEAMQPVEEQAVEQPAQEL | not failed
MQKCSLITVISLSVLMLAGCTTTYTMTTRTGEIIETQGKPEVDTATGMTKYADAYGYHRVIKTSEIVQTTEGASKLDWLEHHHHHH | failed
MPKLSVIVPTFNRQVLLEKAIKSIQNQDFKDLEIIVSDDNSSDDTKSVVQNLQKDDDRIKYFLNQNYKQGPNGNKNNGLDQASGEFVTFLDDDDELLSGALSTLMQKANEGYAHVFGNCLIEKEGNLSKEFSGKGLEKDSEISKKDFLMAKFSGEFFSVFKKSLLENKRFNEEFYGNEATLWVNLYKEKSFYIHKAFRIYRIFRQDSVTLGASKNAYRVYLGYLELAKILENELRMSKDKDYKKTCASYYKMAAYYAKLAKNYKALYKCLFKSLSIKINAPALILLILSIIPNNMIEKLSKIRVALCKN | failed
MQAMTERLEAMLAQGTDNMLLRFTLGKTYAEHEQFDAALPHLRAALDFDPTYSVAWKWLGKTLQGQGDRAGARQAWESGLAAAQSRGDQQVVKELQVFLRRLAREDAQHGG | failed
MAASTDIAGLEESFRKFAIHGDPKASGQEMNGKNWAKLCKDCKVADGKAVTGTDVDIVFSKVKAKSARVINYEEFKKALEELATKRFKGKSKEEAFDAICQLIAGKEPANIGVTKAKTGGAVDRLTDTSKYTGSHKER | not failed
MSGLAQRSDDPWLAALPAAVLYGAWAAYANQDGGLAGMGVAALLQGAASLLATRFGLYLLQCLGRRHGLAQRQAPLLVVLLLTAPMAALHWLSGTPHPLASVAPSFVIGWLYFALWARRRPGRRQASGA | failed
MVPRVPQPGIWCPAVTFFDSKTDTLDLASQERYYAYLARSGLTGLVILGTNAEAFLLTREERAQLIATARKAVGPDFPIMAGVGAHSTRQVLEHINDASVAGANYVLVLPPAYFGKATTPPVIKSFFDDVSCQSPLPVVIYNFPGVCNGIDLDSDMITTIARKNPNVVGVKLTCASVGKITRLAATLPPAAFSVFGGQSDFLIGGLSVGSAGCIAAFANVFPKTVSKIYELYKAGKVDQAMELHRKAALAESPCKSGIATTKYAAAIFSAKAAGIEDAEEKLRPRKPYDPPSEAAKQEVRKVMAEVAAIEAGLS | not failed
MCPEFQRKAAGAPRMGAMLARCVLTAALALQAAAAARAVEIEIGVASRGVVDGLEFVQFSADERTMATTHWGNVVHLWDLKTLRVRSSVSVANRDFDFDLSPDGRALAVWNEEGKGEIELYDTDNGQPARALPAPRLPQGESRRGRSLVYRDDGTLEFVSHGWIGGHARKAYLLAVPAGQPRAAETPLPALVNSVAFRKSAVMDQGRLLLAGVDGADDELAIMDIASGRMLAREPGFRIASYAADARRAVFVEADGKQRILAFDFSSRSLSTLPRWTGSGKFQPYRFVAGTRFLVLAPDEPDASTRRAAPGIYDLQTRRLHRLPPDADPGSIDVWGATASYVLCNPDHTACQAEVADLAISRKLGTFAVQPSADFRTWISPSGSMVVVGGADDGTMMVWSVKEQRVIGPNLEHHHHHH | failed
MFLSGAHSFNANCRRQRQRVFGAPRVPLGESKICCVWAQHFLPCSRVYDPMTSKVSSPTLLEALSSDFLACKICLEQLHTPKTLPCLHTYCQDCLAQLDIGGQVRCPECRETVPVPPEGVAAFKTNFFVNGLLDLVKARAAGDSHSGKPTCALCPLVGGKSSGGPATARCLDCADDLCQACADGHRCSRQTHKHRVVDLVGYRAGWYDEEARERQASQCPQHPGETLCFLCQPCSQLLCKDCRLGPHIDHPCLPLAEAVRSRKPGLEELLAGVDSNLLELEATRVAEKEALALLREQAASVGTQVEEAAERILKSLLAQKQEVLGQLRALVEAAEEATRERLTKIESQEQVAKAAAAFARRVLSLGLEAEILSLEGAITQRLRQLQDTPWTSGPTRCVLPQLELHPGLEDKNCHLLRLSFEEPRQSQKDGGKVGAGTQGGDEAQSQGDDRTKTGKQGGAQPLIPKEGKAQNPPEDDEVLIERGNRPNKKKKCKGRGKSVSREPSPILRPNLEGSGPLPRPVFSWSFPTRMPGDKRSPRITGLCPYGPQEILVADEQNRVLKRFSLNGDYKGTVPVPEGCSPCSVAALQNAVAFSANAKLYLVSPEGEVQWRRSLSLAQSSHAVAAMPCGDRVAVSVAGHVEVYKKEGSLATRFIPGGKASRGQRALVFLTTSPQGNFVGSDWQQNSVVFCDGLGQVIWEYKGPGLHGCQPGSVSVDKKGYIFLTLREVNKVVILDPKGSLLGDFLTAYHGLEKPRVTTMVDGKYLVVSLSNGTIHVFRVRFPDS | failed
MQLNQTNTPFNEEQLALINQLLPMLTPEQQHWLSGYLLNPATTSVSDNKTDIQENEAGITETETSTSTDQSVSEPVSASTEPLDVHVLYGTETGNAEEIAETFETKLKSQNLNVHLWDMDDFPRDSLPEVEHLFIICSTQGVGEPPINALDLYDYLHGDDAPQLDQVNFAVLALGDQDFPDFCQAGKDFDYILGQLGANRVADRVDCDFDYEETAEQWITNMLELLTQASSNTNEETPSVENEDVTIEEPQAPYSKSNPFQAEVLKNTILTQPEASREVRHLEISLEGYREAYEPGDSLVVIPQNDPVLVNQLIDALNWDAETPIQMNDSDSMRSLKEALTHDFEIAKLTPVLMKNAAELLGNPMLNANIQKSEWVQNYIYGKDVIDLIRDFTPVALEPNMLPQLLRKLPPREYSIASSNKVNPNSVHITVRVVKYEAHRRERFGVCSVQLADRTSVGDKLPVYLKKNPNFKFPYDTETPVIMIGAGTGIAPYRAYLQERAYLNLKGEQWLIFGNQNYHHDFLYKDDLEQWLEEGVLSKLDLAFSRETENKIYVQHRIEENSAEFYKWIQAGATIYLCGNKDEMASGVHESLIKVLIKEGNLDETEAEAYLTEMIKNQRYQRDVY | failed
LRTIVELMENNLEETLSLDQLAAYSGRSRRQIDRLFQAQLGTSPRRYYMELRITKSRRLLQYSDLSVMEVAVACGFVSVSHFSKCYAAYFGYPPSREQRLGE | failed
MTDTLFKIMFEGQVRDGVEPETAKANLAGLFKSETAAVQKLFNGEPIALKRGLVHAEAERYIEALKEAGVEARIEPDQAISFNLNEVGNQASPWTPARQAPQDASPYAPPKAQVGSEHYGHSTLKVFTTNGRIGRLRFLAWSMVQCVALVALIALALIVLNWSLVAGGLLIAVLVVVFVTIGVMIGVQRLHDLGWSGWLLLLNLVPFVGSLFPFLIMLLPGTRGANQYGPPPPPNTRGVKVLGIIWIAMIPVISVASIYYSIGKLAEAELALQTDEYEQSLPYDDEQEPGSALNAPADVIEEPQDQNDKQ | failed
MKVTNLFKDKVDAISAHQSEFMNWMSPTLRDYWSDFLGKAQNSFLFSNVRDHNQPAVNEEVAPQPAPIVLQPEAQKLYDELSGKIGEVIHTGDWVHVSQERINQFGAVTEDMQWIHTDPERASVESPFKTTIAHGFLTLALLPKLTDSVDADKPLFPTAKLVVNLGLNQVRFPYPVKAGNNVRAVSTLTKVTPIKKGLEIEREIKVEIEGVRRPGAVVVSVIQLHFLEHHHHHH | not failed
MVSSSLSLTTLAGGTLLLKGSPSTLFYKHGRTLFIVDPGHGRKRAKQISKAAEKLGGEAVAIITHFHSDHLSTLYQGFQPSTALAPVKDLAMVQDRVMRLHYTFGYPFTGAEDYLLFKAEDVDNVEPLEAERIKPLRLVPLPGHTPGQTGVETPDGVLYAADSIFGERVLQTYAVPYHSNPCQALETLTRLRDRVNRLEVIVPSHGKPVKGEEAERLLEMNIERLEDAWTALTEELSRAPASVGLLASTLMKRYGAEATPTLAILVETAVRGYIGCHGAELEPILESGVVKWRVRRR | failed
MPQPKKDKPDTPLRSDAQRNRERILAVATEELTHCANAPLSAIAKKAGVGQGTFYRNFPNREALVLEIYRYGMQQVAEAAPEMLATGEPDLALRQWMDRLAEFAMTKAGLADAIRLVTSAPGAPEKPRPTPLEDAAELLLRANHEAGTIRPGVTGDDFFLVLGGLWLIDPGENWQPRVTRFLDLVMDGLRAGAPGR | not failed
